Laboratory results: doi:10.1101/2020.09.10.288878

Molecular target: taxol-stabilized microtubules polymerised from porcine brain tubulin (porcine) (UniProt P02550)
Test: co-sedimentation

Substance | decrease in the pellet fraction against MBP-MTB-WT [%]
MBP-MTB-12Q (MBP-tagged Sli15 microtubule binding domain, twelve basic SAH residues to glutamine) (domain or fragment) | 20
MBP-MTB-ΔSAH (MBP-tagged Sli15 microtubule binding domain with the SAH region deleted) (domain or fragment) | 20
